Laboratory results as given in article doi:10.1101/2024.09.05.611400.

Molecular target: SARS-CoV-2 main protease (M^pro), commercial recombinant (rcM^pro) (SARS-CoV-2) (UniProt P0DTD1)
Assay: enzyme inhibition assay

PPACK (D-Phe-Pro-Arg-CH2Cl) (peptide) was tested, and the Ki was 160 nM.
